Assay [1] concerns the target human TSH receptor on CHO cells (human) (UniProt P16473). Description: cell-based or functional assay.
Assay [2] has the same target. The experiment in a line: cell-based or functional assay. The source holds these as a separate data set.
For assay [3], the target named is TSH receptor coated onto plastic tubes (UniProt P16473). The experiment in a line: TSHR coated tubes; 9D33 IgG 10 µg/mL; competitor 125I-hMAb TSHR1.
Assay [4] has the same target. The experiment in a line: TSHR coated tubes; 9D33 IgG 0.01 µg/mL; competitor 125I-TSH.
The target is the same in assay [5]. The experiment in a line: TSHR coated tubes; 9D33 IgG 0.01 µg/mL; competitor 125I-9D33.
The target is the same in assay [6]. Description: TSHR coated tubes; 9D33 IgG 0.001 µg/mL; competitor 125I-TSH.
For assay [7] the target is unchanged. Description: TSHR coated tubes; 9D33 IgG 0.001 µg/mL; competitor 125I-9D33.
The target is the same in assay [8]. Description: TSHR coated tubes; 9D33 IgG 0.1 µg/mL; competitor 125I-9D33.
Assay [9] has the same target. Description: TSHR coated tubes; 9D33 IgG 0.01 µg/mL; competitor 125I-hMAb TSHR1.
For assay [10] the target is unchanged. The experiment in a line: TSHR coated tubes; 9D33 IgG 1 µg/mL; competitor 125I-9D33.
For assay [11] the target is unchanged. Description: TSHR coated tubes; 9D33 IgG 10 µg/mL; competitor 125I-9D33.
Assay [12] has the same target. Description: TSHR coated tubes; 9D33 IgG 0.1 µg/mL; competitor 125I-hMAb TSHR1.
Assay [13] shares this target. The experiment in a line: TSHR coated tubes; 9D33 IgG 0.1 µg/mL; competitor 125I-TSH.
The target is the same in assay [14]. Description: 125I-9D33 binding to TSHR coated tubes in the pool of healthy blood donor sera, no 90/672.
For assay [15] the target is unchanged. The experiment in a line: TSHR coated tubes; 9D33 IgG 0.001 µg/mL; competitor 125I-hMAb TSHR1.
For assay [16] the target is unchanged. The experiment in a line: TSHR coated tubes; 9D33 IgG 10 µg/mL; competitor 125I-TSH.
For assay [17] the target is unchanged. The experiment in a line: TSHR coated tubes; 9D33 IgG 1 µg/mL; competitor 125I-hMAb TSHR1.
Assay [18] shares this target. Description: TSHR coated tubes; 9D33 IgG 1 µg/mL; competitor 125I-TSH.
Assay [19] has the same target. The experiment in a line: 125I-9D33 binding to TSHR coated tubes in the pool of healthy blood donor sera.

Values joined by “and” are separate entries in the source; they are usually repeats but may differ in a detail not shown here. Equal entries are not always repeated. Where two headings read alike, the source gives them in different places.

B1: 2B4 IgG (mouse monoclonal antibody to the TSHR) (antibody, from another filing, V domains shown)
VH: DVQLQQSGTVLARPGASVRMSCKASGYSFTRYWIHWLKQRPGQGLEWIGAIFPGNRDTSYNQRFKGKAEVTAVTSASTAYLDLSSLTNEDSAVYYCTRWPYYGSIYVNFDYWGQGTTLTVSS
VL: DIVMTQSPLSLPVSLGDQASISCRTSQNLVHRNGNTYLHWYLQKPGQSPKLLIYKISNRFSGVPDRFSGSGSGTDFTLKISRVEAEDLGVYFCSQGTHVPPTFGGGTKLEIKR
In the case of B1, in assay [1], the mean pmol cyclic AMP/cell well; 2B4 IgG 100 µg/mL alone (pmol/cell well) came out at 0.49; the mean pmol cyclic AMP/cell well; pTSH 0.5 ng/mL plus 2B4 IgG 100 µg/mL (pmol/cell well) came out at 0.78; the pmol cyclic AMP/cell well; 2B4 IgG 100 µg/mL alone (pmol/cell well) was 0.446 and 0.486 and 0.552; the pmol cyclic AMP/cell well; pTSH 0.5 ng/mL plus 2B4 IgG 100 µg/mL (pmol/cell well) was 0.878 and 0.71 and 0.742. Besides, in assay [1], the x basal stimulation; 2B4 IgG 100 µg/mL alone is 1.4 x basal and the x basal stimulation; pTSH 0.5 ng/mL plus 2B4 IgG 100 µg/mL is 2.3 x basal. Further, in assay [2], the mean pmol cyclic AMP/cell well; 2B4 IgG 100 µg/mL alone (pmol/cell well) was 0.331; the mean pmol cyclic AMP/cell well; hMAb TSHR1 Fab 5 ng/mL plus 2B4 IgG 100 µg/mL (pmol/cell well) is 2.94; the pmol cyclic AMP/cell well; 2B4 IgG 100 µg/mL alone (pmol/cell well) was 0.298 and 0.318 and 0.376; the pmol cyclic AMP/cell well; hMAb TSHR1 Fab 5 ng/mL plus 2B4 IgG 100 µg/mL (pmol/cell well) was 3.32 and 2.63 and 2.86. In [2], the x basal stimulation; 2B4 IgG 100 µg/mL alone is 0.46 x basal and the x basal stimulation; hMAb TSHR1 Fab 5 ng/mL plus 2B4 IgG 100 µg/mL turned out to be 4 x basal.

B2: 9D33 IgG (mouse monoclonal antibody to the TSHR) (antibody, V domains shown)
VH: DVQIQQPGTELVKPGASVRLSCKASGYTFTTYWMHWVKQRPGQGLEWIGEIDPSDSYTNYNQKFKGKATLTVDKSSSTAYMHLSSLTSEDSAVYYCSRNYGSGYYFDYWGQGTTLTVSS
VL: GVEMTQSPAIMSASPGEKVTMTCSASSSVSYMHWYQQKSGTSPKRWIYDTSKLASGVPARFSGSGSGTSYSLTISSMETEDAATYYCQQWSSNPWTFGGGTKLEIK
Regarding B2, the inhibition of 125I-hMAb TSHR1 binding turned out to be 56% in assay [3]; 3% in assay [9]; 21% in [12]; 0% in [15]; 44% in assay [17]. For the same molecule, the inhibition of 125I-TSH binding in assay [4] was 17%; in assay [6], 0%; in [13], 34%; in assay [16] it was 68%; in assay [18] it was 58%. Further, the inhibition of 125I-9D33 binding in assay [5] stood at 9%; in [7], 4%; in [8], 35%; in assay [10], 64%; in assay [11], 71%. Besides, the figures for the 125I-9D33 bound (% total counts added) in assay [14] and in assay [19] were 15% and 11%, respectively.

The record behind these values is patent publication US20060241289A1.
